Experimental findings from US8119594B1, “Method of modulating integrin mediated cellular activity and agents useful for same” (Inter-K Pty Limited, priority 1999, dated 2012) are described below.

This test deals with β6-bound ERK. The test can be described thus: β6 immunoprecipitation and ERK Western blot in transfected SW480 cells. The following applies: SW480 transfectants; mAb R6G9 immunoprecipitates probed with E10; FIG. 27(B). Type of test: cell-based, human. An excerpt: Construction of the β6 Δ746-764 (SEQ ID NO. 19) deletion mutant in the vector pcDNA1neo and failure of the expressed receptor to localise to focal adhesions in Chinese hamster ovary cells has been reported (Cone et al, 1994).
Equal protein loads of cell lysates prepared from SW480 cells were immunoprecipitated with either anti-β6 monoclonal antibody (mAb R6G9) or matched isotype control antibody.
Background: Immunoblotting shows a protein as a band on a membrane.

B1: β6 Δ746-764 deletion mutant: β6 subunit expressed from a deletion construct lacking the coding sequence for … (protein)
chain: WLCLGGAETCEDCLLIGPQCAWCAQENFTHPSGVGERCDTPANLLAKGCQLNFIENPVSQVEILKNKPLSVGRQKNSSDIVQIAPQSLILKLRPGGAQTLQVHVRQTEDYPVDLYYLMDLSASMDDDLNTIKELGSGLSKEMSKLTSNFRLGFGSFVEKPVSPFVKTTPEEIANPCSSIPYFCLPTFGFKHILPLTNDAERFNEIVKNQKISANIDTPEGGFDAIMQAAVCKEKIGWRNDSLHLLVFVSDADSHFGMDSKLAGIVIPNDGLCHLDSKNEYSMSTVLEYPTIGQLIDKLVQNNVLLIFAVTQEQVHLYENYAKLIPGATVGLLQKDSGNILQLIISAYEELRSEVELEVLGDTEGLNLSFTAICNNGTLFQHQKKCSHMKVGDTASFSVTVNIPHCERRSRHIIIKPVGLGDALELLVSPECNCDCQKEVEVNSSKCHHGNGSFQCGVCACHPGHMGPRCECGEDMLSTDSCKEAPDHPSCSGRGDCYCGQCICHLSPYGNIYGPYCQCDNFSCVRHKGLLCGGNGDCDCGECVCRSGWTGEYCNCTTSTDSCVSEDGVLCSGRGDCVCGKCVCTNPGASGPTCERCPTCGDPCNSKRSCIECHLSAAGQAGEECVDKCKLAGATISEEEDFSKDGSVSCSLQGENECLITFLITTDNEGKTIIHSINEKDCPKPPNIPMIMLGVSLATLLIGVVLLCIWKLLVSFHDRKEVAKFSTSTFKNVTYKHREKQKVDLSTDC
B1: the “reduction of β6-bound ERK relative to wild type receptor” value was over 75%.
